Results on one molecule are retold here after patent EP0797662B1 (NEW YORK UNIVERSITY, dated 1995).

The experiment concerns the target T1, SHC (54 kDa band, in lysates of NIH 3T3 cells expressing the EGFR/HER2 chimera) (mouse, UniProt P98083-2 1-469, limits assumed, tyrosine phosphorylated after EGF stimulation).
T1 sequence (looked up): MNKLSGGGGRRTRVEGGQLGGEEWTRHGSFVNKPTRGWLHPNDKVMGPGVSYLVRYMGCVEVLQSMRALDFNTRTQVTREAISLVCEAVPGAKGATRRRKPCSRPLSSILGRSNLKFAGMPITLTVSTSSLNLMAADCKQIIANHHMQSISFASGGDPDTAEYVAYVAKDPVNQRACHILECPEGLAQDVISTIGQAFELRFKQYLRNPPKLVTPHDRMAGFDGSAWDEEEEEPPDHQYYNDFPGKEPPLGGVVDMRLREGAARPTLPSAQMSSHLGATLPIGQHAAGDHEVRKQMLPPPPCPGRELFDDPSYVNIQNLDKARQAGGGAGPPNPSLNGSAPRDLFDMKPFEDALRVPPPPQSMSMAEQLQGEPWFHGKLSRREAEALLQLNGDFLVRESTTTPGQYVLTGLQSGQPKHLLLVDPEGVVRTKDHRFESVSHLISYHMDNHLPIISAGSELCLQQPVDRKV
As to the kind of experiment: blot of lysate of NIH 3T3 cells with the chimera probed with 32P-labelled GST-GRB-7 SH2.

B1: GST fusion protein of the GRB-7 SH2 domain (amino acids 419-535) in pGSTag (other, mouse, UniProt Q03160 419-535, looked up)
chain: CSGSSLSAAIHRTQPWFHGRISREESQRLIGQQGLVDGVFLVRESQRNPQGFVLSLCHLQKVKHYLILPSEDEGCLYFSMDEGQTRFTDLLQLVEFHQLNRGILPCLLRHCCARVAL
modifications: 32P-phosphate at the protein kinase A site of the vector when used as the probe
notes: range 419-535; also called GST-GRB-7-SH2; [32P]GRB-7 SH2 domain; not shown: glutathione S-transferase of the pGSTag vector; protein kinase A phosphorylation site and linker of pGSTag
As to B1, the binding result was “binds”.
